From PMC7210950, “Btk SH2-kinase interface is critical for allosteric kinase activation and its targeting inhibits B-cell neoplasms” (Nature Communications, 2020)
Square brackets hold non-standard residues; d marks the D form. Ends that are not written are not given here. pY = N[C@@H](Cc1ccc(OP(=O)(O)O)cc1)C(=O)O

Experiments:
Experiment in all cases: fluorescence polarisation; Btk SH2 WT and mutants at several concentrations with 1 µM FITC-labeled peptide; Tris 40 mM pH 8, 150 mM NaCl, 1 mM DTT; 1:1 binding model
Conditions in all cases: both partners purified
[1] = target: T1, Btk SH2 domain, wild-type (recombinant) (human, UniProt Q06187 271-383)
T1 construct: SH2 domain of human Bruton's tyrosine kinase (Btk); the construct is in PDB 6HTF; Construct limits are not in the text; also called Btk SH2 WT; human Btk SH2 domain; source: E. coli Bl21(DE3), purified (Ni-NTA, TEV cleavage, SEC); not shown: His6, N-terminal, cleaved; GST, N-terminal, cleaved
T1 sequence (Q06187 271-383): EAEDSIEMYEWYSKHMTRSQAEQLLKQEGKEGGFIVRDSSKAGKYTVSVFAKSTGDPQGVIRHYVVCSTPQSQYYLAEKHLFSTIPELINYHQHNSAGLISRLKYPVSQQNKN

[2] = target: T2, Btk SH2 domain K296E (XLA mutation) (human, UniProt Q06187 271-383, K296E)
T2 construct: SH2 domain of human Btk with the XLA patient mutation K296E; Same limits as m1; source: E. coli Bl21(DE3), purified (Ni-NTA, TEV cleavage, SEC); not shown: His6, N-terminal, cleaved; GST, N-terminal, cleaved
T2 sequence (Q06187 271-383 K296E): as the sequence (Q06187 271-383) above, with K26E counted along it

[3] = target: T3, Btk SH2 domain H364D (XLA mutation) (human, UniProt Q06187 271-383, H364D)
T3 construct: SH2 domain of human Btk with the XLA patient mutation H364D; Same limits as m1; source: E. coli Bl21(DE3), purified (Ni-NTA, TEV cleavage, SEC); not shown: His6, N-terminal, cleaved; GST, N-terminal, cleaved
T3 sequence (Q06187 271-383 H364D): as the sequence (Q06187 271-383) above, with H94D counted along it

[4] = target: T4, Btk SH2 domain S371P (XLA mutation) (human, UniProt Q06187 271-383, S371P)
T4 construct: SH2 domain of human Btk with the XLA patient mutation S371P; Same limits as m1; source: E. coli Bl21(DE3), purified (Ni-NTA, TEV cleavage, SEC); not shown: His6, N-terminal, cleaved; GST, N-terminal, cleaved
T4 sequence (Q06187 271-383 S371P): as the sequence (Q06187 271-383) above, with S101P counted along it

[5] = target: T5, Btk SH2 domain R372G (XLA mutation) (human, UniProt Q06187 271-383, R372G)
T5 construct: SH2 domain of human Btk with the XLA patient mutation R372G; Same limits as m1; source: E. coli Bl21(DE3), purified (Ni-NTA, TEV cleavage, SEC); not shown: His6, N-terminal, cleaved; GST, N-terminal, cleaved
T5 sequence (Q06187 271-383 R372G): as the sequence (Q06187 271-383) above, with R102G counted along it

[6] = target: T6, Btk SH2 domain K374N (XLA mutation) (human, UniProt Q06187 271-383, K374N)
T6 construct: SH2 domain of human Btk with the XLA patient mutation K374N; Same limits as m1; also called Btk SH2 K374N; source: E. coli Bl21(DE3), purified (Ni-NTA, TEV cleavage, SEC); not shown: His6, N-terminal, cleaved; GST, N-terminal, cleaved
T6 sequence (Q06187 271-383 K374N): as the sequence (Q06187 271-383) above, with K104N counted along it

binding result [1]: binds | binding result [2]: binds | binding result [3]: binds | binding result [4]: binds | binding result [5]: binds | binding result [6]: binds
B1: FITC-labeled pY-peptide (ADNDpYIIPLPD) (peptide)
peptide: ADND[pY]IIPLPD
modifications: also: FITC label, end not given here
notes: also called fluorescently labeled pY-peptide
